Assay results taken from publication PMC11953334, “Substrates bind to residues lining the ring of asymmetrically engaged bacterial proteasome activator Bpa” (Nature Communications, 2025).

Experiments:
cross-linking + SEC = target: the molecule itself; assay: cross-linking + SEC
negative stain EM = target: the molecule itself; assay: negative stain EM
20S CP α-subunit = target: T1, 20S CP α-subunit (M. tuberculosis H37Rv, UniProt P9WHU1 1-248); assay: cryo-EM structure; settings: both partners purified
T1 construct: also called proteasomal α-subunits; α-ring
T1 sequence (P9WHU1 whole entry): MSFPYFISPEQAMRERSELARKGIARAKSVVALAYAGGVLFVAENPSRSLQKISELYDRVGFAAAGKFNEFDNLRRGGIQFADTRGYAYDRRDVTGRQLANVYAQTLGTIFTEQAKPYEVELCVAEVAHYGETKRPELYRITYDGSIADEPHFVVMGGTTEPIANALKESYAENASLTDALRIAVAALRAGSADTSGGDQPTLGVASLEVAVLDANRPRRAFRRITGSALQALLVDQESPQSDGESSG

Binder	stoichiometry N (cross-linking + SEC)	stoichiometry N (negative stain EM)	binding result (20S CP α-subunit)
truncated Bpa variant lacking the flexible N- and C-terminal segments (Bpa36-139) (domain or fragment, Dodecameric ring; also called substrate-captured Bpa; copies: 12) SLTDLVEQPAKVMRIGTMIKQLLEEVRAAPLDEASRNRLRDIHATSIRELEDGLAPELREELDRLTLPFNEDAVPSDAELRIAQAQLVGWLEGLFHGIQTALFA	12	24	–
bacterial proteasome activator Bpa, full-length, wild-type (natural protein, also called wild-type Bpa ring; Bpa12; copies: 12) MVIGLSTGSDDDDVEVIGGVDPRLIAVQENDSDESSLTDLVEQPAKVMRIGTMIKQLLEEVRAAPLDEASRNRLRDIHATSIRELEDGLAPELREELDRLTLPFNEDAVPSDAELRIAQAQLVGWLEGLFHGIQTALFAQQMAARAQLQQMRQGALPPGVGKSGQHGHGTGQYL	–	–	binds
